Experimental findings from US5534410 are described below.

The target in experiment [1] is Sp1, over-expressed and purified from HeLa cells infected with a vaccinia virus expression vector (Homo sapiens (Human)) (UniProt P08047). Put plainly: 35S-TAF110 (reticulocyte lysate) on DNA-bound Sp1 resin, SDS-PAGE, PhosphorImager.
Experiment [2] addresses GAL4-Sp1B domain fusion (Homo sapiens (Human)) (UniProt P08047).

With “Drosophila TAF110 (dTAFII110), full-length”, in experiment [1], the fold greater binding to the Sp1-containing resin than to the resin without Sp1 is 60 fold.
In the case of “Sp1(N539), the gln-rich A and B domains of Sp1 (from UniProt P08047)”, the transcription of a reporter gene dependent on GAL4 binding sites (CAT), superactivation assay in Drosophila Schneider cells in experiment [2] is 50 fold.
